The values that follow are results of earlier work, collected in patent US9358478B2, “Spray-drying apparatus and methods of using the same” (Bend Research, Inc., priority 2010, dated 2016).

The conditions of this data set: in words.

With Peptide YY (PYY) [Active Agent 3], the solubility in water result is recorded as “soluble”.
